Reference: US20260008852A1

Target: B7-H3 on CHO-K1 cells stably transfected with B7-H3 (GenScript #M00536) (UniProt Q5ZPR3)
Assay: cell-based or functional assay

B7-H3 on CHO-K1 cells stably transfected with B7-H3 (GenScript #M00536), sequence (Q5ZPR3 29-534 limits assumed): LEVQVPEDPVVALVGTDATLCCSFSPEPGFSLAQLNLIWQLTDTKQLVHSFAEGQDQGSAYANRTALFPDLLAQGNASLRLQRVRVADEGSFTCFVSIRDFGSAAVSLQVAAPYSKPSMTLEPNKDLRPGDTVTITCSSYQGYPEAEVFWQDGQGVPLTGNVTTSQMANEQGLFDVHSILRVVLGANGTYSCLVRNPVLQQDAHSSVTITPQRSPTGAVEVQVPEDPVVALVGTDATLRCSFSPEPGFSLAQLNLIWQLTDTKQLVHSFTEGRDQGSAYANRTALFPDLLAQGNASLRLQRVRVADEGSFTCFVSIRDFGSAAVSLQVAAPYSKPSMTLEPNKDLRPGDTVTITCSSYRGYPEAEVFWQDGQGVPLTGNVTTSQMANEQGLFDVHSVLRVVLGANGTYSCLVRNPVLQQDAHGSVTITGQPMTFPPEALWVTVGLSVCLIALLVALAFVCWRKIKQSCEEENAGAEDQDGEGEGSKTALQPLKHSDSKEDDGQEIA

ADCC reporter assay, EC50 Value, CHOK1/B7-H3 cells: 4550 ng/mL
ADCC reporter assay, Max RLU, CHOK1/B7-H3 cells: 162000 RLU
Substance: Benchmark MGA-271 (antibody)
